Measurements published in US20030223975, “Transcriptional regulation of PTP-1B” (Cold Spring Harbor Laboratory, published 2003).

Legend:
[1] = molecular target: T1, YB-1 (B-TEP, purified from Rat1 nuclear extract) (Rattus norvegicus, UniProt P62961 SEQ:1-322); assay: EMSA; 10 ng YB-1; complex supershifted by anti-YB-1; anti-GATA1/GATA2 as controls; 25 C; conditions: label: 32P (EMSA) or biotin (pull-down)
Experimental: To further examine the interaction of YB-1 with the PTP1B enhancer, an EMSA was performed using purified YB-1 (10 ng) and the double-stranded DNA ³²P-labelled −155/−132 probe (see methods described above). A YB-1/DNA probe complex was detected by incubating the complex with the anti-YB-1 antibody (see above). Included as controls were anti-GATA1 (sc266X) and anti-GATA2 (sc-9008X) antibodies (Santa Cruz Biotechnology, Inc., Santa Cruz, Calif.). Purified YB-1 was incubated without antibody or separately with each antibody for 1 hour at 4° C., followed by addition of the DNA probe for 20 minutes at 25° C.

[2] = molecular target: GST-YB-1 (UniProt P67809 P67809:1-324); assay: EMSA; 1 or 10 ng GST-YB-1; binding shown in figure; conditions: tags: N-terminal GST fusion, expressed in E. coli BL21 (plasmid gift of K. Kohno)
GST-YB-1, sequence (P67809 whole entry, the tested form may be a part, one chain of several): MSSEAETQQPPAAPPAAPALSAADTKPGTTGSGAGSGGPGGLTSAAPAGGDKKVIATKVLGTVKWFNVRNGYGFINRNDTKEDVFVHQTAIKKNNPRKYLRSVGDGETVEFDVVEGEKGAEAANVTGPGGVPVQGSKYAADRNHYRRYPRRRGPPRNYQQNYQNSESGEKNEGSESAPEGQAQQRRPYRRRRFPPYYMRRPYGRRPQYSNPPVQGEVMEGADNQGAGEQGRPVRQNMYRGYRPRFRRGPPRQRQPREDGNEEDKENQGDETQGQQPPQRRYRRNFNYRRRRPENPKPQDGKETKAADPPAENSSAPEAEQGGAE
Excerpt: Complex formation of YB-1 with the PTP1B enhancer was confirmed using purified YB-1 from a different source. Expression plasmids for GST and for GST-YB-1 (gift from Dr. K. Kohno) (see Izumi et al., Nucleic Acids Res. 29:1200-07 (2001)) were each separately transfected into E. coli BL21 cells. Recombinant proteins were expressed and purified (see Frangioni and Neel, Anal. Biochem. 210:179-87 (1993)) and analyzed by SDS-PAGE as shown in FIG. 9B (left panel). The interaction between GST-tagged YB-1 and the PTP1B enhancer probe was analyzed by EMSA. Purified GST or GST-YB-1 proteins (1 or 10 ng) were combined with double-stranded DNA ³²P-labelled probe −167/−132 (see above) in the absence or presence of unlabeled double-stranded DNA probe −167/−132 or the deletion mutant probe −167/−132 (Δ−155/−144) (see above), which were tested as competitors of complex formation.

[3] = molecular target: T1, YB-1 (B-TEP, purified from Rat1 nuclear …); assay: pulldown; purified on -167/-132 affinity column, eluted at 0.8 M NaCl; complex B in EMSA
Experimental: To purify proteins within the TEP sequence complexes, nuclear extracts were subjected to SP-Sepharose chromatography followed by DNA-affinity chromatography (FIG. 3A). Nuclear extracts (approximately 50 mg) were obtained from Rat1 cells as described above. The extracts were dialyzed against starting buffer (0.1 M NaCl in 20 mM HEPES pH 7.9, 20 mM NaF, 1 mM Na₃VO₄, 1 mM Na₄P₂O₇, 0.125 μM okadaic acid, 1 mM EDTA, 1 mM EGTA, 1 mM DTT, 0.5 mM PMSF, 1 μg/ml leupeptin, 1 μg/ml aprotinin, 1 μg/ml pepstatin, 0.2% NP-40, 5% glycerol) and then applied to SP Sepharose (20 ml) (Pharmacia Biotech, Piscataway, N.J.) equilibrated with the starting buffer. Proteins were eluted in a stepwise manner with 0.2, 0.3, 0.4, 0.6, and 0.8 M NaCl containing nuclear extraction buffer. Each fraction (5 μl aliquots) was assayed by EMSA using ³²P-labelled probes as described above. Fractions containing Complex B (detected by the ³²P-labeled −167/−132 probe, see FIG. 2B) were dialyzed to 0.2 M NaCl containing starting buffer and then applied to a double-stranded DNA-conjugated affinity column. The sequence of the DNA used for affinity chromatography corresponded to nucleotides −167 to −132 from the transcription start site as follows:
The DNA was biotinylated according to standard methods. […]

T1 sequence (P62961 other isoform, or with tags, fused parts or gaps): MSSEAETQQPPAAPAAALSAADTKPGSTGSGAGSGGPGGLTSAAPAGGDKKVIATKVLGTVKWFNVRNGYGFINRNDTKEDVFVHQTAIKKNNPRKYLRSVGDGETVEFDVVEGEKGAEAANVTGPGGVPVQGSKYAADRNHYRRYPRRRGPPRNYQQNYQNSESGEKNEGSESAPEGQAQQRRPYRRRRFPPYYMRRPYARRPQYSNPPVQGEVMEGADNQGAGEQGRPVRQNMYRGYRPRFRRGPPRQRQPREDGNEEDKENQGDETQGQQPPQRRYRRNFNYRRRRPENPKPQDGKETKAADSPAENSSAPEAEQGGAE

Binder	binding result [1]	binding result [2]	binding result [3]
PTP1B enhancer -155/-132 (dsDNA) DNA 1: AGATATCTCGCGGTGCTGGGGCCA DNA 2: TGGCCCCAGCACCGCGAGATATCT	binds	–	–
PTP1B enhancer -167/-132 (dsDNA) DNA 1: ACGCGCGCTATTAGATATCTCGCGGTGCTGGGGCCA DNA 2: TGGCCCCAGCACCGCGAGATATCTAATAGCGCGCGT	–	binds	binds
